Columns and labels:
[1] = target: 24P4C12 (human) (UniProt Q53GD3); assay: FACS on LNCaP cells, ADC at 0.878 nM
[2] = target: 24P4C12 (human) (UniProt Q53GD3); assay: FACS on LNCaP cells, ADC at 23.704 nM
[3] = target: 24P4C12 (human) (UniProt Q53GD3); assay: FACS on LNCaP cells, ADC at 71.111 nM
[4] = target: 24P4C12 (human) (UniProt Q53GD3); assay: FACS saturation binding on LNCaP cells (endogenous 24P4C12), one site fit
[5] = target: 24P4C12 (human) (UniProt Q53GD3); assay: FACS on LNCaP cells, ADC at 106.667 nM
[6] = target: 24P4C12 (human) (UniProt Q53GD3); assay: FACS on LNCaP cells, ADC at 160.000 nM
[7] = target: 24P4C12 (human) (UniProt Q53GD3); assay: FACS on LNCaP cells, ADC at 0.033 nM
[8] = target: 24P4C12 (human) (UniProt Q53GD3); assay: FACS on LNCaP cells, ADC at 0.098 nM
[9] = target: 24P4C12 (human) (UniProt Q53GD3); assay: FACS on LNCaP cells, ADC at 0.011 nM
[10] = target: 24P4C12 (human) (UniProt Q53GD3); assay: FACS on LNCaP cells, ADC at 0.293 nM
[11] = target: 24P4C12 (human) (UniProt Q53GD3); assay: FACS on LNCaP cells, ADC at 7.901 nM
[12] = target: 24P4C12 (human) (UniProt Q53GD3); assay: FACS on LNCaP cells, ADC at 2.634 nM

Sequence of UniProt Q53GD3 (Q53GD3 whole entry): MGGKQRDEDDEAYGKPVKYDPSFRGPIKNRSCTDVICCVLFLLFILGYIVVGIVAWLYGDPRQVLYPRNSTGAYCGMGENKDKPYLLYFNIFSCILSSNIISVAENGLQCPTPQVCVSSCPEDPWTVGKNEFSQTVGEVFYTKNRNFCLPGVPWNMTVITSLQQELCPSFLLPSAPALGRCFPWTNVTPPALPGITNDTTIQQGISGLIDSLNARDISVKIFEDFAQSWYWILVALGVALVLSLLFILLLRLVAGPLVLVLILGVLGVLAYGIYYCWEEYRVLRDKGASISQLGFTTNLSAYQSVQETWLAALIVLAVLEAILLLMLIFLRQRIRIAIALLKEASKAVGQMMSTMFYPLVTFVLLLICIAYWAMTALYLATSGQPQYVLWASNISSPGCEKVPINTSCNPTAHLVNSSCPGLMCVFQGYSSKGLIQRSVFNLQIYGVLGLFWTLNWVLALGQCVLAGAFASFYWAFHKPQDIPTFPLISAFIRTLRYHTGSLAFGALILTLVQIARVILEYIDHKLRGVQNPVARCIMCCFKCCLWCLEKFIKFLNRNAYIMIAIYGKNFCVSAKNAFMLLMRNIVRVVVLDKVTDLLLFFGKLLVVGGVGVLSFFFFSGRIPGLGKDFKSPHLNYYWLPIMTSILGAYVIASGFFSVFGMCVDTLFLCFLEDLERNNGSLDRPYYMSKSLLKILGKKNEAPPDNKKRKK

MFI [1]: 54 MFI | MFI [2]: 97 MFI | MFI [3]: 108 MFI | Kd [4]: 1.05 nM | MFI [5]: 114 MFI | MFI [6]: 116 MFI | MFI [7]: 9 MFI | MFI [8]: 15 MFI | MFI [9]: 7 MFI | MFI [10]: 28 MFI | MFI [11]: 86 MFI | MFI [12]: 70 MFI
B1: Ha5-1(5)2.1vcMMAE (protein)
heavy: QVQLVESGGGVVQPGRSLRLSCAASGFTFSSYGMHWVRQAPGKGLEWVAVMSYDGSKKFYTDSVKGRFTISRDNSKNTLYLQMNSLRAEDTAVYYCARDGGDYVRYHYYGMDVWGQGTTVTVSSASTKGPSVFPLAPCSRSTSESTAALGCLVKDYFPEPVTVSWNSGALTSGVHTFPAVLQSSGLYSLSSVVTVPSSNFGTQTYTCNVDHKPSNTKVDKTVERKCCVECPPCPAPPVAGPSVFLFPPKPKDTLMISRTPEVTCVVVDVSHEDPEVQFNWYVDGVEVHNAKTKPREEQFNSTFRVVSVLTVVHQDWLNGKEYKCKVSNKGLPAPIEKTISKTKGQPREPQVYTLPPSREEMTKNQVSLTCLVKGFYPSDIAVEWESNGQPENNYKTTPPMLDSDGSFFLYSKLTVDKSRWQQGNVFSCSVMHEALHNHYTQKSLSLSPGK
light: DIQMTQSPSTLSASIGDRVTITCRASQGISYYLAWYQQKPGKIPKLLIYDTSSLQSGVPSRFSGSRSGTDLSLTISSLQPEDVATYYCQRYDSAPLTFGGGTKVEIKRTVAAPSVFIFPPSDEQLKSGTASVVCLLNNFYPREAKVQWKVDNALQSGNSQESVTEQDSKDSTYSLSSTLTLSKADYEKHKVYACEVTHQGLSSPVTKSFNRGEC
modifications: vcMMAE (Val-Cit linker, monomethyl auristatin E) on cysteine thiols after partial TCEP reduction; p about 3.6 per antibody; positions not given
